These results are taken from PMC2113854.

Experiment [1] deals with EGF/TGF-alpha receptor of normal rat kidney (NRK) cells (170-kD receptor species) (rat (endogenous in NRK)). As to the kind of experiment: radioligand binding.
Experiment [2] concerns the target EGF/TGF-alpha receptor of A431 cells (human (endogenous in A431)) (UniProt P00533). The experiment in a line: radioligand binding.

The substance “125I-labeled mouse submaxillary gland epidermal growth factor (125I-EGF) (ligand)” came in with a specific binding at 0.3 nM ligand, monolayers not treated with TGF-beta (Fig. 2) in experiment [1] of 785 cpm/well.

Turning to “125I-labeled transforming growth factor-alpha (125I-TGF-alpha) (from UniProt P01134 39-88) (ligand)”, in experiment [1], the 125I-TGF-alpha bound with 66 nM TGF-beta (NRK membranes) (fmol/mg protein) was 5.6; the 125I-TGF-alpha bound with 330 nM TGF-beta (NRK membranes) (fmol/mg protein) is 5.6; the 125I-TGF-alpha bound, no competing ligand (NRK membranes) (fmol/mg protein) came out at 5.4; the Kd, high-affinity sites lay in the range of 0.2 to 0.3 nM. In experiment [1], this substance registered a Kd, low-affinity sites of 2.7 to 2.9 nM and a specific binding at 0.3 nM ligand, cells not treated with TGF-beta (Fig. 1A) of 810 cpm/well.

As to “mouse submaxillary gland epidermal growth factor (native, unlabeled EGF) (ligand)”, the 125I-TGF-alpha bound with 66 nM EGF (A431 membranes) (fmol/mg protein) in experiment [2] is 140. For the same substance, the 125I-TGF-alpha bound with 66 nM EGF (NRK membranes) (fmol/mg protein) in experiment [1] is 1.6.

Regarding “transforming growth factor-alpha (native, unlabeled TGF-alpha) (from UniProt P01134 39-88) (ligand)”, the 125I-TGF-alpha bound with 66 nM TGF-alpha (NRK membranes) (fmol/mg protein) in experiment [1] came to 1.2.
